In patent publication EP1828247B1:
Substitutions are numbered along the chain they refer to. Where two headings read alike, the source gives them in different places.

Experiments:
[1] = target: West Nile virus strain USA99b (strain 385-99), whole virus (West Nile virus strain 385-99 (USA99b)); assay: ELISA on irradiated WNV; IgG1 at 2.500 µg/ml
[2] = target: West Nile virus strain USA99b (strain 385-99), whole virus (West Nile virus strain 385-99 (USA99b)); assay: ELISA on irradiated WNV; IgG1 at 0.160 µg/ml (printed 0.1.60)
[3] = target: West Nile virus strain USA99b (strain 385-99), whole virus (West Nile virus strain 385-99 (USA99b)); assay: ELISA on irradiated WNV; IgG1 at 0.039 µg/ml
[4] = target: West Nile virus strain USA99b (strain 385-99), whole virus (West Nile virus strain 385-99 (USA99b)); assay: cell-based or functional assay
[5] = target: West Nile virus strain USA99b (strain 385-99), whole virus (West Nile virus strain 385-99 (USA99b))
[6] = target: West Nile virus strain USA99b (strain 385-99), whole virus (West Nile virus strain 385-99 (USA99b)); assay: ELISA on irradiated WNV; IgG1 at 0.630 µg/ml
[7] = target: West Nile virus strain USA99b (strain 385-99), whole virus (West Nile virus strain 385-99 (USA99b)); assay: ELISA on irradiated WNV; IgG1 at 0.000 µg/ml (no antibody)
[8] = target: West Nile virus strain USA99b (strain 385-99), whole virus (West Nile virus strain 385-99 (USA99b)); assay: ELISA on irradiated WNV; IgG1 supernatant diluted 1:25
[9] = target: West Nile virus strain USA99b (strain 385-99), whole virus (West Nile virus strain 385-99 (USA99b)); assay: ELISA on irradiated WNV; IgG1 at 1.250 µg/ml
[10] = target: West Nile virus strain USA99b (strain 385-99), whole virus (West Nile virus strain 385-99 (USA99b)); assay: ELISA on irradiated WNV; IgG1 at 0.078 µg/ml
[11] = target: West Nile virus strain USA99b (strain 385-99), whole virus (West Nile virus strain 385-99 (USA99b)); assay: ELISA on irradiated WNV; IgG1 supernatant diluted 1:5
[12] = target: West Nile virus strain USA99b (strain 385-99), whole virus (West Nile virus strain 385-99 (USA99b)); assay: ELISA on irradiated WNV; IgG1 at 5.000 µg/ml
[13] = target: West Nile virus strain USA99b (strain 385-99), whole virus (West Nile virus strain 385-99 (USA99b)); assay: ELISA on irradiated WNV; IgG1 at 0.310 µg/ml
[14] = target: West Nile virus SEN90 (strain ArD-76104) (West Nile virus strain ArD-76104); assay: cell-based or functional assay
[15] = target: West Nile virus MAD78 (strain DakAnMg798) (West Nile virus strain DakAnMg798); assay: cell-based or functional assay
[16] = target: West Nile virus TUN97 (strain paH001) (West Nile virus strain paH001); assay: cell-based or functional assay
[17] = target: West Nile virus FRA00 (strain PaAn001) (West Nile virus strain PaAn001); assay: cell-based or functional assay
[18] = target: West Nile virus strain USA99b (strain 385-99), whole virus (West Nile virus strain 385-99 (USA99b)); assay: cell-based or functional assay; remark: listed apart in the source
[19] = target: West Nile virus CAR82 (strain ArB3573/82) (West Nile virus strain ArB3573/82); assay: cell-based or functional assay
[20] = target: West Nile virus strain USA99b (strain 385-99), whole virus (West Nile virus strain 385-99 (USA99b)); assay: ELISA on irradiated WNV; IgG1 supernatant diluted 1:125 (printed 1.125)
[21] = target: West Nile virus strain USA99b (strain 385-99), whole virus (West Nile virus strain 385-99 (USA99b)); assay: ELISA on irradiated WNV; IgG1 at 20.000 µg/ml
[22] = target: West Nile virus strain USA99b (strain 385-99), whole virus (West Nile virus strain 385-99 (USA99b)); assay: ELISA on irradiated WNV; IgG1 at 10.000 µg/ml
[23] = target: West Nile virus strain USA99b (strain 385-99), whole virus (West Nile virus strain 385-99 (USA99b)); remark: listed apart in the source

B1: CR4374 (antibody, V domains shown)
VH: QITLKESGPTLVKPTQTLTLTCTFSGFSLSTSGVGVGWIRQPPGKALEWLAVIYWNDDKLYRPSLKSRLTITKDTSKNQVVLTMTKMDPVDTATYYCAHRHRYYDISGYYRLFSDAFDIWGQGTMVTVSS
VL: QSVLTQPPSVSGAPGQRVTISCTGSSSNIGAGYDVHWYQQLPGTAPKLLIYGNSNRPSGVPDRFSGSKSGTSASLAITGLQAEDEADYYCQSYDSSLSGSVFGGGTKLTVLG
B1 gave an OD 492nm [1] of 1.58 OD 492nm, an OD 492nm [2] of 0.997 OD 492nm and an OD 492nm [3] of 0.458 OD 492nm. The PRNT50 [4] was 0.18 µg/mL, the PRNT90 [4] was 0.95 µg/mL and the Kd [5] was 56 nM. For the same binder, the OD 492nm [6] was 1.45 OD 492nm, the OD 492nm [7] was 0.003 OD 492nm and the OD 492nm [8] was 2.27 OD 492nm. It also gave an OD 492nm [9] of 1.5 OD 492nm, an OD 492nm [10] of 0.729 OD 492nm and an OD 492nm [11] of 2.32 OD 492nm. The OD 492nm [12] was 1.65 OD 492nm, the OD 492nm [13] was 1.24 OD 492nm and the PRNT50 [14] was 0.29. The PRNT90 [14] was 3.92, the PRNT50 [15] was 0.12 and the PRNT90 [15] was 4.12. The PRNT50 [16] was 0.03, the PRNT90 [16] was 0.22 and the PRNT50 [17] was 0.11. It also gave a PRNT90 [17] of 1.36, a PRNT50 [18] of 0.17 and a PRNT90 [18] of 0.82. The PRNT50 [19] was 0.14, the PRNT90 [19] was 2.9 and the OD 492nm [20] was 2.12 OD 492nm. It also gave an OD 492nm [21] of 1.69 OD 492nm and an OD 492nm [22] of 1.72 OD 492nm.

B2: CR5080 (antibody, V domains shown)
VH: B1 VH
VL: B1 VL with S100W, V101A
B2 was tested, and the Kd [23] was 2.7 nM, the PRNT50 [4] was 0.016 µg/mL and the PRNT90 [4] was 0.08 µg/mL.

B3: CR5074 (antibody, V domains shown)
VH: B1 VH
VL: B1 VL with A31T, G52A, N53D, S54T, L80V, S95T, S98T, S100W, L108V
In the case of B3, the Kd [23] is reported as 3.9 nM, the PRNT50 [4] is reported as 0.013 µg/mL and the PRNT90 [4] is reported as 0.067 µg/mL.

B4: CR5088 (antibody, V domains shown)
VH: B1 VH
VL: B1 VL with L4V, V18I, L48F, S100W
Binder B4 has a Kd [23] of 1.7 nM, a PRNT50 [4] of 0.017 µg/mL and a PRNT90 [4] of 0.087 µg/mL.

B5: CR5085 (antibody, V domains shown)
VH: B1 VH
VL: B1 VL with L4V, A86T, S98N, S100W
With B5 the Kd [23] was 3.7 nM, the PRNT50 [4] was 0.015 µg/mL and the PRNT90 [4] was 0.077 µg/mL.

B6: CR4361 (antibody, V domains shown)
VH: EVQLVQSGAEVKKPGESLKISCKASGFSFSTYWIGWVRQMPGKGLEWMGIIYPADSDTRYSPSFQGQVTISADKSISTAYLQWSSLKASDTAMYYCARLRGPYYDFWNGYRETHDAFNVWGQGTMVTVSS
VL: DVVMTQSPDSLAVSLGERATINCKSSQNILDNSDNKNFLAWYQQKPGQPPKLLIYWASARESGVPDRFSGSGSGTDFTLTISSLQAEDVALYYCQQYYNTPITFGQGTRLEIKR
For B6, the PRNT50 [4] was 2.03 µg/mL and the PRNT90 [4] was > 100 µg/mL.

B7: CR4353 (antibody, V domains shown)
VH: QVQLVESGGGVVQPGRSLRLSCAASGFTFSNYAMHWVRQAPGKGLEWVAVISYDGGNKYYADSVKGRFTMSRDNSKNTLYLQMNSLRAEDTAVYYCARDFWSGYSMVDSYYYYMDVWGQGTTVTVSS
VL: ETTLTQSPGTLSLSPGERATLSCRASQSVSNTFLAWYQQKPGQAPRLLIYGASSRATGIPDRFSGSGSGTDFTLTISRLEPEDFAAYYCQQYGSSLTFGPGTKVDIKR
With B7 the OD 492nm [1] was 1.43 OD 492nm, the OD 492nm [2] was 1.07 OD 492nm and the OD 492nm [3] was 0.595 OD 492nm. The PRNT50 [4] was 0.026 µg/mL, the PRNT90 [4] was 36.4 µg/mL and the Kd [5] was 6.5 nM. It also gave an OD 492nm [6] of 1.33 OD 492nm, an OD 492nm [7] of 0.003 OD 492nm and an OD 492nm [9] of 1.42 OD 492nm. For the same binder, the OD 492nm [10] was 0.734 OD 492nm, the OD 492nm [12] was 1.55 OD 492nm and the OD 492nm [13] was 1.17 OD 492nm. The OD 492nm [22] was 1.57 OD 492nm.
